# Results reported in patent US20260201008A1, “SECRETIN-DERIVED GLP1R SELECTIVE AGONISTS” (GUBRA A/S, priority 2023, published 2026).
# Where two headings read alike, the source gives them in different places. Numbered stars: 1 amine (or outer) side, 2 acyl side, 3 side chain; on linkers, the order of the positions; unused ones are H or OH. Square brackets hold non-standard residues; d marks the D form. Side chains are listed from the residue outwards. Ends that are not written are not given here. Peptide text beside a SMILES is read from it. * marks the point of attachment. C20 diacid = O=C(O)CCCCCCCCCCCCCCCCCCC(=O)*; γGlu = O=C(O)[C@H](CCC(=O)[*:2])N[*:1]; AEEA = NCCOCCOCC(=O)O; Aib = CC(C)(N)C(=O)O
# Key:
# [1] = Fibril formation of crude library peptides (Thioflavin T); type: physicochemical; design: key: average ThT fluorescence emission at 480 nm (ex 450 nm), raw units; conditions: Physical stability of peptides
# Summary of the method: (§1)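 Crude peptides at 267 μM in 50 mM sodium acetate pH 4.0 or 50 mM sodium phosphate pH 7.0, pre-incubated 1-2 h at room temperature, then 4 μM final ThT added. Turbidity read first as A600. ThT fluorescence (ex 450/em 480 nm) read every 10 min for 72 h at 40° C, with 5 min shaking before each read; fibril formation = average emission.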
# [2] = Turbidity of crude library peptides (absorbance at 600 nm); type: physicochemical; conditions: Physical stability of peptides
# Summary of the method: as §1
# [3] = Solubility of purified peptides; type: physicochemical; conditions: 100 mM phosphate buffer, target pH 7.0, target approximately 10 mg/mL
# Description: Solubility was tested in the following vehicles: 100 mM phosphate buffer facilitating a target pH of 7.0. Samples were directly dissolved in Mini-UniPrep Syringeless Filter 0.45 μm unit (Whatman). For the desired concentration, such as a concentration of approximately 10 mg/mL, 1050 nmol of peptide was dissolved in 400 μL vehicle. Samples were incubated for at least 1 h at room temperature on a rocking table. The pH was measured and adjusted. Samples were left on the rocking table for an additional hour before a second pH measurement and adjustment. Visual inspection was performed and noted before the filter was pushed. The concentration of peptide in the filtrate was determined using CAD (Charged Aerosol Detection), double determination was done for each sample. The measured concentration was reported in μM. Furthermore, the pH of the filtrate was measured and reported. Peptides with a measured concentration within +/−20% of target concentration are considered fully soluble.
# SCTR = SCTR (Homo sapiens, UniProt P47872); test: hSCTR potency, cAMP accumulation in CHO-K1 cells stably overexpressing hSCTR; type: cell-based; design: alternatively Euroscreen ES-712-AF; FAST-0161L; host or cells: CHO-K1
# Summary of the method: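 Read-out is TR-FRET cAMP detection, recorded one hour after reagent addition, in CHO-K1 cells stably overexpressing hSCTR. Cells in DPBS containing 0.05% casein and 0.5 mM IBMX are exposed to graded peptide doses for 30 min at room temperature, with human secretin as reference agonist.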
# GLP1R = GLP1R (Homo sapiens, UniProt P43220); test: hGLP1R potency, cAMP accumulation in CHO-K1 cells stably overexpressing hGLP1R; type: cell-based; design: host or cells: CHO-K1
# Summary of the method: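 Thawed cells go straight into buffer containing 0.5 mM IBMX and 0.05% casein, get graded compound doses for 30 min at room temperature, and are then assayed for accumulated cAMP by time-resolved FRET. Human GLP-1(7-36) serves as positive control; EC50 is derived by nonlinear regression.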
# [4] = Thioflavin T fibril formation assay of purified peptides; type: physicochemical; conditions: 267 μM, phosphate buffer pH 7.0, 96 h at 40° C.
# Description: Thioflavin T fibril formation assay: Peptides are dissolved as 267 μM in 50 mM phosphate buffer pH 7.0 for 2 h at room temperature on a rocking table. The samples were then divided into three replicates of 80 μl/well and mixed with 2 μl/well Thioflavin T (ThT) to a final concentration of 4 μM ThT in a black 384 well microplate with a clear bottom (Greiner #781096). The plate is inserted in a CLARIOstar Plus microplate reader (BMG Labtech) and fibril formation is measured as an increase in fluorescence emission at 480 nm (excitation at 450 nm) during 96 h at 40° C. with cycles of 5 min rest and 5 min linear shaking at 700 rpm.
# [5] = biological target: T1, human GLP-1 receptor (hGLP1R) (human, UniProt P43220 24-463); test: cell-based or functional assay
# [6] = biological target: T2, human secretin receptor (hSCTR) (human, UniProt P47872 23-440); test: cell-based or functional assay
# [7] = biological target: T1, human GLP-1 receptor (hGLP1R); test: cell-based or functional assay; remark: listed apart in the source
# [8] = biological target: T2, human secretin receptor (hSCTR); test: cell-based or functional assay; remark: listed apart in the source
# T2 sequence (P47872 23-440): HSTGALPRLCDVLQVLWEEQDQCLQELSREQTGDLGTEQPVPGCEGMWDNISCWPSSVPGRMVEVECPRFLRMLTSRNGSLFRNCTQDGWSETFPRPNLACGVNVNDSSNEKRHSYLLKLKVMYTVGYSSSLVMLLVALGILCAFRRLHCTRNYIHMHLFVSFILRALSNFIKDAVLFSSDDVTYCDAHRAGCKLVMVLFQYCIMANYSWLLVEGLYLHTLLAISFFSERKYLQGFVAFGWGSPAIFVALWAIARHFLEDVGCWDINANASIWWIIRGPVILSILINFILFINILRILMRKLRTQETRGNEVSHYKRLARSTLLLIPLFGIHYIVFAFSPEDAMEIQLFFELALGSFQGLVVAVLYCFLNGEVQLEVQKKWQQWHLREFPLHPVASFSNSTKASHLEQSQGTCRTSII
# Chain of GLP1R (P43220 24-463): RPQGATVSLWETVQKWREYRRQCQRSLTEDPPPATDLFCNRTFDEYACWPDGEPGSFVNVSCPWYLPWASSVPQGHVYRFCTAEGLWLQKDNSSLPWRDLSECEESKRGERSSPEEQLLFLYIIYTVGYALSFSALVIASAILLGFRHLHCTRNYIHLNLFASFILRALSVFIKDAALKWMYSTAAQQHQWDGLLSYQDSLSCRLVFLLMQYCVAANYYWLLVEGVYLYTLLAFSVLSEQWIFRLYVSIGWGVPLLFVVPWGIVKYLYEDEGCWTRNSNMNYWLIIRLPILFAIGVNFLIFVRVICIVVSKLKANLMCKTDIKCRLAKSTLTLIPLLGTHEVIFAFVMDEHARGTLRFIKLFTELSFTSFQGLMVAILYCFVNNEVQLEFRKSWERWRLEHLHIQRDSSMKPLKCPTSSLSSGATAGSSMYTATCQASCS
# Chain of SCTR (P47872 23-440): as the sequence (P47872 23-440) above
molecule,measurement,setting,value
CC(C)C[C@H](NC(=O)[C@H](Cc1ccccc1)NC(=O)[C@H](CCCNC(=N)N)NC(=O)[C@H](CCC(N)=O)NC(=O)[C@H](CC(C)C)NC(=O)C(C)(C)NC(=O)[C@H](C)NC(=O)[C@H](CCC(=O)O)NC(=O)[C@H](CCC(=O)O)NC(=O)[C@H](CCCCNC(=O)COCCOCCNC(=O)COCCOCCNC(=O)CC[C@H](NC(=O)CCCCCCCCCCCCCCCCCCC(=O)O)C(=O)O)NC(=O)[C@H](CC(C)C)NC(=O)[C@H](CCC(=O)O)NC(=O)[C@H](CO)NC(=O)[C@@H](NC(=O)[C@H](CC(=O)O)NC(=O)[C@H](CO)NC(=O)[C@@H](NC(=O)[C@H](Cc1ccccc1)NC(=O)[C@@H](NC(=O)CNC(=O)[C@H](CCC(=O)O)NC(=O)C(C)(C)NC(=O)[C@@H](N)Cc1c[nH]cn1)[C@@H](C)O)[C@@H](C)O)C(C)C)C(=O)N[C@@H](CCC(=O)O)C(=O)N[C@@H](Cc1c[nH]cn1)C(=O)N[C@@H](CC(C)C)C(=O)N[C@H](C(N)=O)C(C)C [compound 168] (H-H[Aib]EGTFTSDVSELK([AEEA-AEEA-γGlu-C20 diacid])EEA[Aib]LQRFLEHLV-NH2),Fibril formation,[1],2998
same,Turbidity (pH 7),[2],0.08
same,solubility,[3],9800 µg/mL
same,EC50,"SCTR; cAMP accumulation, CHO-K1 cells overexpressing hSCTR, read-out: hSCTR pEC50 (converted)",50.1 nM
same,EC50,"SCTR; purified peptides, read-out: hSCTR EC50",100 nM
same,Selectivity,"GLP1R; SCTR EC50/GLP1R EC50 ratio, purified peptides",8333
same,EC50,"GLP1R; cAMP accumulation, CHO-K1 cells overexpressing hGLP1R, read-out: hGLP1R pEC50 (converted)",0.00631 nM
same,SCTR EC50/GLP1R EC50 ratio,"GLP1R; selectivity for hGLP1R over hSCTR, cAMP accumulation in CHO-K1 cells",6853
same,Fibril formation,[4],No
H[Aib]EGTFTSD[Aib]SRLLEGAALQRFIQWLV-NH2 (N-terminus assumed; SMILES CC[C@H](C)[C@H](NC(=O)[C@H](Cc1ccccc1)NC(=O)[C@H](CCCNC(=N)N)NC(=O)[C@H](CCC(N)=O)NC(=O)[C@H](CC(C)C)NC(=O)[C@H](C)NC(=O)[C@H](C)NC(=O)CNC(=O)[C@H](CCC(=O)O)NC(=O)[C@H](CC(C)C)NC(=O)[C@H](CC(C)C)NC(=O)[C@H](CCCNC(=N)N)NC(=O)[C@H](CO)NC(=O)C(C)(C)NC(=O)[C@H](CC(=O)O)NC(=O)[C@H](CO)NC(=O)[C@@H](NC(=O)[C@H](Cc1ccccc1)NC(=O)[C@@H](NC(=O)CNC(=O)[C@H](CCC(=O)O)NC(=O)C(C)(C)NC(=O)[C@@H](N)Cc1c[nH]cn1)[C@@H](C)O)[C@@H](C)O)C(=O)N[C@@H](CCC(N)=O)C(=O)N[C@@H](Cc1c[nH]c2ccccc12)C(=O)N[C@@H](CC(C)C)C(=O)N[C@H](C(N)=O)C(C)C) [SEQ ID NO: 222],pEC50 hGLPR1,[5],9.9 -log M
same,pEC50 hSCTR,[6],6.5 -log M
H[Aib]EGTFTSDPSRLLEGAALQRFIQWLV-NH2 (N-terminus assumed; SMILES CC[C@H](C)[C@H](NC(=O)[C@H](Cc1ccccc1)NC(=O)[C@H](CCCNC(=N)N)NC(=O)[C@H](CCC(N)=O)NC(=O)[C@H](CC(C)C)NC(=O)[C@H](C)NC(=O)[C@H](C)NC(=O)CNC(=O)[C@H](CCC(=O)O)NC(=O)[C@H](CC(C)C)NC(=O)[C@H](CC(C)C)NC(=O)[C@H](CCCNC(=N)N)NC(=O)[C@H](CO)NC(=O)[C@@H]1CCCN1C(=O)[C@H](CC(=O)O)NC(=O)[C@H](CO)NC(=O)[C@@H](NC(=O)[C@H](Cc1ccccc1)NC(=O)[C@@H](NC(=O)CNC(=O)[C@H](CCC(=O)O)NC(=O)C(C)(C)NC(=O)[C@@H](N)Cc1c[nH]cn1)[C@@H](C)O)[C@@H](C)O)C(=O)N[C@@H](CCC(N)=O)C(=O)N[C@@H](Cc1c[nH]c2ccccc12)C(=O)N[C@@H](CC(C)C)C(=O)N[C@H](C(N)=O)C(C)C) [SEQ ID NO: 221],pEC50 hGLPR1,[5],8.6 -log M
same,pEC50 hSCTR,[6],5.3 -log M
H[Aib]EGTFTSDLSRLLEGAALQRFIQWLV-NH2 (N-terminus assumed; SMILES CC[C@H](C)[C@H](NC(=O)[C@H](Cc1ccccc1)NC(=O)[C@H](CCCNC(=N)N)NC(=O)[C@H](CCC(N)=O)NC(=O)[C@H](CC(C)C)NC(=O)[C@H](C)NC(=O)[C@H](C)NC(=O)CNC(=O)[C@H](CCC(=O)O)NC(=O)[C@H](CC(C)C)NC(=O)[C@H](CC(C)C)NC(=O)[C@H](CCCNC(=N)N)NC(=O)[C@H](CO)NC(=O)[C@H](CC(C)C)NC(=O)[C@H](CC(=O)O)NC(=O)[C@H](CO)NC(=O)[C@@H](NC(=O)[C@H](Cc1ccccc1)NC(=O)[C@@H](NC(=O)CNC(=O)[C@H](CCC(=O)O)NC(=O)C(C)(C)NC(=O)[C@@H](N)Cc1c[nH]cn1)[C@@H](C)O)[C@@H](C)O)C(=O)N[C@@H](CCC(N)=O)C(=O)N[C@@H](Cc1c[nH]c2ccccc12)C(=O)N[C@@H](CC(C)C)C(=O)N[C@H](C(N)=O)C(C)C) [SEQ ID NO: 216 (GUB06-046)],pEC50 hGLPR1,[5],10.4 -log M
same,pEC50 hSCTR,[6],9.3 -log M
same,pEC50 hGLPR1,[7],10.4 -log M
same,pEC50 hSCTR,[8],9.3 -log M
H[Aib]EGTFTSDVSRLLEGAALQRFIQWLV-NH2 (N-terminus assumed; SMILES CC[C@H](C)[C@H](NC(=O)[C@H](Cc1ccccc1)NC(=O)[C@H](CCCNC(=N)N)NC(=O)[C@H](CCC(N)=O)NC(=O)[C@H](CC(C)C)NC(=O)[C@H](C)NC(=O)[C@H](C)NC(=O)CNC(=O)[C@H](CCC(=O)O)NC(=O)[C@H](CC(C)C)NC(=O)[C@H](CC(C)C)NC(=O)[C@H](CCCNC(=N)N)NC(=O)[C@H](CO)NC(=O)[C@@H](NC(=O)[C@H](CC(=O)O)NC(=O)[C@H](CO)NC(=O)[C@@H](NC(=O)[C@H](Cc1ccccc1)NC(=O)[C@@H](NC(=O)CNC(=O)[C@H](CCC(=O)O)NC(=O)C(C)(C)NC(=O)[C@@H](N)Cc1c[nH]cn1)[C@@H](C)O)[C@@H](C)O)C(C)C)C(=O)N[C@@H](CCC(N)=O)C(=O)N[C@@H](Cc1c[nH]c2ccccc12)C(=O)N[C@@H](CC(C)C)C(=O)N[C@H](C(N)=O)C(C)C) [SEQ ID NO: 220],pEC50 hGLPR1,[5],10.2 -log M
same,pEC50 hSCTR,[6],7.2 -log M
H[Aib]EGTFTSDISRLLEGAALQRFIQWLV-NH2 (N-terminus assumed; SMILES CC[C@H](C)[C@H](NC(=O)[C@H](Cc1ccccc1)NC(=O)[C@H](CCCNC(=N)N)NC(=O)[C@H](CCC(N)=O)NC(=O)[C@H](CC(C)C)NC(=O)[C@H](C)NC(=O)[C@H](C)NC(=O)CNC(=O)[C@H](CCC(=O)O)NC(=O)[C@H](CC(C)C)NC(=O)[C@H](CC(C)C)NC(=O)[C@H](CCCNC(=N)N)NC(=O)[C@H](CO)NC(=O)[C@@H](NC(=O)[C@H](CC(=O)O)NC(=O)[C@H](CO)NC(=O)[C@@H](NC(=O)[C@H](Cc1ccccc1)NC(=O)[C@@H](NC(=O)CNC(=O)[C@H](CCC(=O)O)NC(=O)C(C)(C)NC(=O)[C@@H](N)Cc1c[nH]cn1)[C@@H](C)O)[C@@H](C)O)[C@@H](C)CC)C(=O)N[C@@H](CCC(N)=O)C(=O)N[C@@H](Cc1c[nH]c2ccccc12)C(=O)N[C@@H](CC(C)C)C(=O)N[C@H](C(N)=O)C(C)C) [SEQ ID NO: 218],pEC50 hGLPR1,[5],10.4 -log M
same,pEC50 hSCTR,[6],7.8 -log M
